According to patent US20260001928A1 (CORTERIA PHARMACEUTICALS, priority 2022, published 2026):
*1 amine or outer side, *2 acyl side, *3 side chain or, on linkers, in order; H or OH if unused. Where no end group is shown, it is not given here. Side-chain parts run from the residue outwards. [ ]: non-standard residue; d: D form. The star is where a group is joined. C18 diacid = O=C(O)CCCCCCCCCCCCCCCCC(=O)*; γGlu = O=C(O)[C@H](CCC(=O)[*:2])N[*:1]; NMeI = CC[C@H](C)[C@H](NC)C(=O)O; Api = NC1(C(=O)O)CCNCC1; Abu = CC[C@H](N)C(=O)O; Dap = NC[C@H](N)C(=O)O; AEEA = NCCOCCOCC(=O)O

T1: CRF1R receptor (UniProt P34998 24-415, limits assumed)
T1 sequence (looked up): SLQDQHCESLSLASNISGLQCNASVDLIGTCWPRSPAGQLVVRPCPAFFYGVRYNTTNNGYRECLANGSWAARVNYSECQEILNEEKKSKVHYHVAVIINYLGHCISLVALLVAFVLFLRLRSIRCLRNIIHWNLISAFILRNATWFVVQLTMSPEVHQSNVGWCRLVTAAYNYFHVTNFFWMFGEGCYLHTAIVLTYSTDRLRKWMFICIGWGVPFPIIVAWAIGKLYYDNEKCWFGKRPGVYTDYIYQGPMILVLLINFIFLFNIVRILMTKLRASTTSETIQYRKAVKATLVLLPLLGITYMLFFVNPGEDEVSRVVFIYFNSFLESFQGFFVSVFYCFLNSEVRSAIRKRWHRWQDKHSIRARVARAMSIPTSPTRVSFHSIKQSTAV


Tests used:
[1] = target: human corticotropin-releasing factor 2a (CRF2a receptor) (human), Q13324; experiment: cell-based or functional assay
[2] = target: T1, CRF1R receptor; experiment: cell-based or functional assay

human corticotropin-releasing factor 2a (CRF2a receptor) (human), Q13324, sequence (Q13324 20-411): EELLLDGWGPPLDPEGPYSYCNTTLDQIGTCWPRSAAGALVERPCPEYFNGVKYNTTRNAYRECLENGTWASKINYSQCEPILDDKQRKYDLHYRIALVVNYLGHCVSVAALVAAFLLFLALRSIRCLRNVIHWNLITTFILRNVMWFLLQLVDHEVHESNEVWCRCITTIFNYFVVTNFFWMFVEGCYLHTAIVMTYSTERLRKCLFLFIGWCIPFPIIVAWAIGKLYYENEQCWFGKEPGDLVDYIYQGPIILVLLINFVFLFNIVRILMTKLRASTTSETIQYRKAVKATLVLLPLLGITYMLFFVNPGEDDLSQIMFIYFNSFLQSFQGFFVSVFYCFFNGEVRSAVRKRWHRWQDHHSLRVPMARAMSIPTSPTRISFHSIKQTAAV

| EC50 [nM] (cAMP) [1] | Emax (% I) [2] | Binder |
| --- | --- | --- |
| 0.18 nM | 6% | [NMeI]VLSLD[dV]PIKLK([AEEA-AEEA-γGlu-C18 diacid])KILLEQEKQKKQREQAETN[Abu]QILAQV-NH2 (N-terminus assumed; SMILES CC[C@H](NC(=O)[C@H](CC(N)=O)NC(=O)[C@@H](NC(=O)[C@H](CCC(=O)O)NC(=O)[C@H](C)NC(=O)[C@H](CCC(N)=O)NC(=O)[C@H](CCC(=O)O)NC(=O)[C@H](CCCNC(=N)N)NC(=O)[C@H](CCC(N)=O)NC(=O)[C@H](CCCCN)NC(=O)[C@H](CCCCN)NC(=O)[C@H](CCC(N)=O)NC(=O)[C@H](CCCCN)NC(=O)[C@H](CCC(=O)O)NC(=O)[C@H](CCC(N)=O)NC(=O)[C@H](CCC(=O)O)NC(=O)[C@H](CC(C)C)NC(=O)[C@H](CC(C)C)NC(=O)[C@@H](NC(=O)[C@H](CCCCN)NC(=O)[C@H](CCCCNC(=O)COCCOCCNC(=O)COCCOCCNC(=O)CC[C@H](NC(=O)CCCCCCCCCCCCCCCCC(=O)O)C(=O)O)NC(=O)[C@H](CC(C)C)NC(=O)[C@H](CCCCN)NC(=O)[C@@H](NC(=O)[C@@H]1CCCN1C(=O)[C@H](NC(=O)[C@H](CC(=O)O)NC(=O)[C@H](CC(C)C)NC(=O)[C@H](CO)NC(=O)[C@H](CC(C)C)NC(=O)[C@@H](NC(=O)[C@@H](NC)[C@@H](C)CC)C(C)C)C(C)C)[C@@H](C)CC)[C@@H](C)CC)[C@@H](C)O)C(=O)N[C@@H](CCC(N)=O)C(=O)N[C@H](C(=O)N[C@@H](CC(C)C)C(=O)N[C@@H](C)C(=O)N[C@@H](CCC(N)=O)C(=O)N[C@H](C(N)=O)C(C)C)[C@@H](C)CC) [SEQ ID NO 114] |
| 0.17 nM | 14% | [NMeI]VLSLD[dV]PIKLK([γGlu-C18 diacid])KILLEQEKQKKQREQAETN[Dap]QILAQV-NH2 (N-terminus assumed; SMILES CC[C@H](C)[C@H](NC)C(=O)N[C@H](C(=O)N[C@@H](CC(C)C)C(=O)N[C@@H](CO)C(=O)N[C@@H](CC(C)C)C(=O)N[C@@H](CC(=O)O)C(=O)N[C@@H](C(=O)N1CCC[C@H]1C(=O)N[C@H](C(=O)N[C@@H](CCCCN)C(=O)N[C@@H](CC(C)C)C(=O)N[C@@H](CCCCNC(=O)CC[C@H](NC(=O)CCCCCCCCCCCCCCCCC(=O)O)C(=O)O)C(=O)N[C@@H](CCCCN)C(=O)N[C@H](C(=O)N[C@@H](CC(C)C)C(=O)N[C@@H](CC(C)C)C(=O)N[C@@H](CCC(=O)O)C(=O)N[C@@H](CCC(N)=O)C(=O)N[C@@H](CCC(=O)O)C(=O)N[C@@H](CCCCN)C(=O)N[C@@H](CCC(N)=O)C(=O)N[C@@H](CCCCN)C(=O)N[C@@H](CCCCN)C(=O)N[C@@H](CCC(N)=O)C(=O)N[C@@H](CCCNC(=N)N)C(=O)N[C@@H](CCC(=O)O)C(=O)N[C@@H](CCC(N)=O)C(=O)N[C@@H](C)C(=O)N[C@@H](CCC(=O)O)C(=O)N[C@H](C(=O)N[C@@H](CC(N)=O)C(=O)N[C@@H](CN)C(=O)N[C@@H](CCC(N)=O)C(=O)N[C@H](C(=O)N[C@@H](CC(C)C)C(=O)N[C@@H](C)C(=O)N[C@@H](CCC(N)=O)C(=O)N[C@H](C(N)=O)C(C)C)[C@@H](C)CC)[C@@H](C)O)[C@@H](C)CC)[C@@H](C)CC)C(C)C)C(C)C) [SEQ ID NO 140] |
| 0.05 nM | 13% | [NMeI]VLSLD[dV]PIKLK([γGlu-C18 diacid])KILLEQEKQKKQREQAETN[Abu]QILAQV-NH2 (N-terminus assumed; SMILES CC[C@H](NC(=O)[C@H](CC(N)=O)NC(=O)[C@@H](NC(=O)[C@H](CCC(=O)O)NC(=O)[C@H](C)NC(=O)[C@H](CCC(N)=O)NC(=O)[C@H](CCC(=O)O)NC(=O)[C@H](CCCNC(=N)N)NC(=O)[C@H](CCC(N)=O)NC(=O)[C@H](CCCCN)NC(=O)[C@H](CCCCN)NC(=O)[C@H](CCC(N)=O)NC(=O)[C@H](CCCCN)NC(=O)[C@H](CCC(=O)O)NC(=O)[C@H](CCC(N)=O)NC(=O)[C@H](CCC(=O)O)NC(=O)[C@H](CC(C)C)NC(=O)[C@H](CC(C)C)NC(=O)[C@@H](NC(=O)[C@H](CCCCN)NC(=O)[C@H](CCCCNC(=O)CC[C@H](NC(=O)CCCCCCCCCCCCCCCCC(=O)O)C(=O)O)NC(=O)[C@H](CC(C)C)NC(=O)[C@H](CCCCN)NC(=O)[C@@H](NC(=O)[C@@H]1CCCN1C(=O)[C@H](NC(=O)[C@H](CC(=O)O)NC(=O)[C@H](CC(C)C)NC(=O)[C@H](CO)NC(=O)[C@H](CC(C)C)NC(=O)[C@@H](NC(=O)[C@@H](NC)[C@@H](C)CC)C(C)C)C(C)C)[C@@H](C)CC)[C@@H](C)CC)[C@@H](C)O)C(=O)N[C@@H](CCC(N)=O)C(=O)N[C@H](C(=O)N[C@@H](CC(C)C)C(=O)N[C@@H](C)C(=O)N[C@@H](CCC(N)=O)C(=O)N[C@H](C(N)=O)C(C)C)[C@@H](C)CC) [SEQ ID NO 139] |
| 0.63 nM | 3% | [NMeI]VLSLD[dV]PIKLK([AEEA-AEEA-γGlu-C18 diacid])KILLEQEKQKKQREQAETN[Api]QILAQV-NH2 (N-terminus assumed; SMILES CC[C@H](C)[C@H](NC)C(=O)N[C@H](C(=O)N[C@@H](CC(C)C)C(=O)N[C@@H](CO)C(=O)N[C@@H](CC(C)C)C(=O)N[C@@H](CC(=O)O)C(=O)N[C@@H](C(=O)N1CCC[C@H]1C(=O)N[C@H](C(=O)N[C@@H](CCCCN)C(=O)N[C@@H](CC(C)C)C(=O)N[C@@H](CCCCNC(=O)COCCOCCNC(=O)COCCOCCNC(=O)CC[C@H](NC(=O)CCCCCCCCCCCCCCCCC(=O)O)C(=O)O)C(=O)N[C@@H](CCCCN)C(=O)N[C@H](C(=O)N[C@@H](CC(C)C)C(=O)N[C@@H](CC(C)C)C(=O)N[C@@H](CCC(=O)O)C(=O)N[C@@H](CCC(N)=O)C(=O)N[C@@H](CCC(=O)O)C(=O)N[C@@H](CCCCN)C(=O)N[C@@H](CCC(N)=O)C(=O)N[C@@H](CCCCN)C(=O)N[C@@H](CCCCN)C(=O)N[C@@H](CCC(N)=O)C(=O)N[C@@H](CCCNC(=N)N)C(=O)N[C@@H](CCC(=O)O)C(=O)N[C@@H](CCC(N)=O)C(=O)N[C@@H](C)C(=O)N[C@@H](CCC(=O)O)C(=O)N[C@H](C(=O)N[C@@H](CC(N)=O)C(=O)NC1(C(=O)N[C@@H](CCC(N)=O)C(=O)N[C@H](C(=O)N[C@@H](CC(C)C)C(=O)N[C@@H](C)C(=O)N[C@@H](CCC(N)=O)C(=O)N[C@H](C(N)=O)C(C)C)[C@@H](C)CC)CCNCC1)[C@@H](C)O)[C@@H](C)CC)[C@@H](C)CC)C(C)C)C(C)C) [SEQ ID NO 117] |
| 0.05 nM | 10% | [NMeI]VLSLD[dV]PIKLK([γGlu-C18 diacid])KILLEQEKQKKQREQAETNAQILAQV-NH2 (N-terminus assumed; SMILES CC[C@H](C)[C@H](NC)C(=O)N[C@H](C(=O)N[C@@H](CC(C)C)C(=O)N[C@@H](CO)C(=O)N[C@@H](CC(C)C)C(=O)N[C@@H](CC(=O)O)C(=O)N[C@@H](C(=O)N1CCC[C@H]1C(=O)N[C@H](C(=O)N[C@@H](CCCCN)C(=O)N[C@@H](CC(C)C)C(=O)N[C@@H](CCCCNC(=O)CC[C@H](NC(=O)CCCCCCCCCCCCCCCCC(=O)O)C(=O)O)C(=O)N[C@@H](CCCCN)C(=O)N[C@H](C(=O)N[C@@H](CC(C)C)C(=O)N[C@@H](CC(C)C)C(=O)N[C@@H](CCC(=O)O)C(=O)N[C@@H](CCC(N)=O)C(=O)N[C@@H](CCC(=O)O)C(=O)N[C@@H](CCCCN)C(=O)N[C@@H](CCC(N)=O)C(=O)N[C@@H](CCCCN)C(=O)N[C@@H](CCCCN)C(=O)N[C@@H](CCC(N)=O)C(=O)N[C@@H](CCCNC(=N)N)C(=O)N[C@@H](CCC(=O)O)C(=O)N[C@@H](CCC(N)=O)C(=O)N[C@@H](C)C(=O)N[C@@H](CCC(=O)O)C(=O)N[C@H](C(=O)N[C@@H](CC(N)=O)C(=O)N[C@@H](C)C(=O)N[C@@H](CCC(N)=O)C(=O)N[C@H](C(=O)N[C@@H](CC(C)C)C(=O)N[C@@H](C)C(=O)N[C@@H](CCC(N)=O)C(=O)N[C@H](C(N)=O)C(C)C)[C@@H](C)CC)[C@@H](C)O)[C@@H](C)CC)[C@@H](C)CC)C(C)C)C(C)C) [SEQ ID NO 138] |
| 0.16 nM | 32% | [NMeI]VLSLD[dV]PIKLK([γGlu-C18 diacid])KILLEQEKQKKQREQAETN[Api]QILAQV-NH2 (N-terminus assumed; SMILES CC[C@H](C)[C@H](NC)C(=O)N[C@H](C(=O)N[C@@H](CC(C)C)C(=O)N[C@@H](CO)C(=O)N[C@@H](CC(C)C)C(=O)N[C@@H](CC(=O)O)C(=O)N[C@@H](C(=O)N1CCC[C@H]1C(=O)N[C@H](C(=O)N[C@@H](CCCCN)C(=O)N[C@@H](CC(C)C)C(=O)N[C@@H](CCCCNC(=O)CC[C@H](NC(=O)CCCCCCCCCCCCCCCCC(=O)O)C(=O)O)C(=O)N[C@@H](CCCCN)C(=O)N[C@H](C(=O)N[C@@H](CC(C)C)C(=O)N[C@@H](CC(C)C)C(=O)N[C@@H](CCC(=O)O)C(=O)N[C@@H](CCC(N)=O)C(=O)N[C@@H](CCC(=O)O)C(=O)N[C@@H](CCCCN)C(=O)N[C@@H](CCC(N)=O)C(=O)N[C@@H](CCCCN)C(=O)N[C@@H](CCCCN)C(=O)N[C@@H](CCC(N)=O)C(=O)N[C@@H](CCCNC(=N)N)C(=O)N[C@@H](CCC(=O)O)C(=O)N[C@@H](CCC(N)=O)C(=O)N[C@@H](C)C(=O)N[C@@H](CCC(=O)O)C(=O)N[C@H](C(=O)N[C@@H](CC(N)=O)C(=O)NC1(C(=O)N[C@@H](CCC(N)=O)C(=O)N[C@H](C(=O)N[C@@H](CC(C)C)C(=O)N[C@@H](C)C(=O)N[C@@H](CCC(N)=O)C(=O)N[C@H](C(N)=O)C(C)C)[C@@H](C)CC)CCNCC1)[C@@H](C)O)[C@@H](C)CC)[C@@H](C)CC)C(C)C)C(C)C) [SEQ ID NO 141] |
